Laboratory results taken from doi:10.1101/686790.

Legend:
[1] = target: T1, GST-HP1γ-Hinge (UniProt P23198 77-111); experiment: EMSA
T1 chain: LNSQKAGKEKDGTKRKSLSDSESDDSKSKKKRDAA

[2] = target: GST-HP1γ (UniProt P23198 11-183); experiment: EMSA
Sequence of GST-HP1γ (P23198 11-183): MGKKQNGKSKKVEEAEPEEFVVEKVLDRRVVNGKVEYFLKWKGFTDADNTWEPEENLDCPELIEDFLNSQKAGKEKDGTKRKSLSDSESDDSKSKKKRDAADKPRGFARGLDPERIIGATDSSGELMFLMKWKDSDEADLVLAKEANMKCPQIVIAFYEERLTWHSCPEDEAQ

UCUGGCACACAGCCACACGCUCAC (ssRNA) [CACACA]
binding result [1]: binds
binding result [2]: binds

CGCUUCGGGCUCGCCGCUCGCUUCC (ssRNA) [Scrambled]
binding result [1]: no binding

GUGAGCUCCAGGCCAGUGAGAGACCCUGUCUCAA (ssRNA) [GAGAGA]
binding result [1]: binds
